From the supplement of paper PMC10567573

B1: GMCL1 (parent)
chain: RPDTGDDAAGHGFCYCAGSHKRKR

Variants of: B1
Test: protein stability index of a GFP-peptide fusion (GPS, HEK-293T) (PSI 1-6); higher = more stable
Details: c terminus: a fixed tail appended
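Also: lentivirally expressed fusions sorted by FACS into six bins by GFP to DsRed ratio, PSI derived from sequencing read proportions per bin multiplied by bin number.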

Variant | protein stability index
K21F | 2.52
K21N | 2.83
K21A | 3.07
K21V | 2.79
K21T | 2.74
K21R | 2.67
K21L | 2.69
K21Y | 2.11
K21C | 3.23
K21I | 2.01
K21Q | 2.79
K21D | 3.15
K21S | 2.34
K21P | 3.03
K21E | 2.57
K21M | 2.65
K21W | 2.29
K21H | 2.35
K21G | 2.39
Y15F | 2.6
Y15Q | 2.74
Y15E | 2.77
Y15C | 2.68
Y15K | 2.5

Variant | protein stability index
Y15T | 2.51
Y15V | 2.8
Y15G | 3.35
Y15L | 2.84
Y15I | 3.09
Y15A | 3.12
Y15W | 2.82
Y15P | 3.36
Y15D | 3.36
Y15M | 2.89
Y15H | 2.98
Y15R | 3.41
Y15N | 2.43
Y15S | 2.77
R24L | 2.66
R24D | 4.3
R24H | 4.13
R24E | 3.64
R24I | 3.33
R24F | 3.18
R24C | 4.32
R24A | 3.53
R24G | 3.4
R24K | 3.65

Variant | protein stability index
H11R | 3.43
H11W | 2.95
H11M | 3.15
H11Q | 3.22
H11P | 3.21
H11V | 2.75
H11D | 3.45
H11E | 3.49
H11T | 4.18
H11C | 2.47
H11Y | 2.84
H11G | 3.18
H11L | 3.14
H11F | 3.27
H11N | 2.32
H11K | 3.16
H11I | 3.26
H11S | 3.24
H11A | 3.64
D6Y | 3.15
R22H | 2.56
R22Y | 2.01
R22S | 2.77
R22E | 3.56

Variant | protein stability index
R22P | 2.79
R22I | 3
R22T | 2.64
R22L | 2.57
R22G | 2.43
R22C | 3.59
R22N | 2.62
R22W | 2.6
R22Q | 2.66
R22A | 2.76
R22K | 3.08
R22M | 2.12
R22V | 2.65
R22D | 3.55
R22F | 1.96
A9P | 3.01
A9S | 2.7
A9W | 2.96
A9D | 3.81
A9L | 2.71
A9N | 3.52
A9R | 3.46
A9H | 2.48
A9M | 2.96

Variant | protein stability index
A9Q | 3.06
A9Y | 3.05
A9V | 2.96
A9F | 2.72
A9C | 3.89
A9I | 2.65
A9K | 3.07
A9G | 3.43
A9T | 3.55
A9E | 3.05
C14M | 4.9
C14G | 4.85
C14F | 3.88
C14Y | 4.88
C14V | 4.3
C14K | 4.98
C14D | 4.75
C14I | 4.3
C14N | 4.62
C14R | 4.87
C14L | 3.66
C14S | 5.02
C14P | 4.31
C14E | 4.99

Variant | protein stability index
C14W | 3.82
C14Q | 4.7
C14T | 4.89
C14A | 4.73
C14H | 4.7
G12F | 3.02
G12H | 3.05
G12V | 3.73
G12P | 3.1
G12C | 2.45
G12E | 2.9
G12T | 3.62
G12N | 3.14
G12A | 2.52
G12K | 3.21
G12W | 2.36
G12Y | 2.71
G12I | 3.02
G12R | 3.11
G12D | 3.14
G12L | 2.38
G12Q | 3.16
G12S | 2.88
G12M | 2.79

Variant | protein stability index
C16V | 4.72
C16K | 4.81
C16Q | 4.92
C16M | 4.17
C16G | 4.85
C16W | 4.36
C16H | 3.87
C16L | 4.11
C16R | 4.59
C16A | 4.94
C16Y | 4.09
C16E | 5.33
C16T | 4.74
C16F | 4.72
C16P | 4.71
C16D | 5.04
C16S | 4.97
C16N | 4.56
C16I | 4.57
G10H | 3.1
G10Y | 2.91
G10P | 2.73
G10D | 3.37
G10C | 2.78

Variant | protein stability index
G10V | 3.49
G10I | 2.71
G10W | 2.84
G10T | 3.18
G10K | 3.22
G10E | 3.14
G10N | 3.71
G10F | 2.9
G10A | 2.86
G10L | 2.36
G10Q | 3.36
G10R | 2.81
G10M | 3.2
G10S | 2.95
K23C | 3.71
K23H | 3.1
K23P | 2.84
K23A | 2.2
K23M | 2.32
K23W | 1.95
K23V | 2.33
K23T | 2.18
K23D | 3.33
K23N | 3.03

Variant | protein stability index
K23Y | 2.22
K23L | 2.16
K23E | 2.94
K23R | 2.37
K23G | 2.9
K23I | 3.04
K23F | 1.9
K23S | 3.12
K23Q | 2.92
D7K | 3.03
D7Y | 2.99
D7H | 3.09
D7N | 3.13
D7I | 3.08
D7R | 3.51
D7Q | 2.83
D7C | 3.02
D7W | 2.2
D7F | 2.83
D7S | 3.47
D7G | 3.3
D7P | 3.28
D7E | 3.95
D7V | 3.16

Variant | protein stability index
D7A | 3.46
D7M | 3.44
D7L | 3.03
D7T | 3.49
H20W | 2.62
H20R | 3.31
H20M | 3.03
H20T | 3.05
H20F | 3.24
H20Q | 3.59
H20C | 3.26
H20N | 3.04
H20G | 3.41
H20E | 3.3
H20K | 4.09
H20Y | 3.12
H20V | 2.79
H20I | 3.9
H20L | 3.18
H20S | 3.95
H20A | 3.15
H20P | 2.85
H20D | 3.35
A17K | 2.82

Variant | protein stability index
A17L | 2.59
A17H | 2.29
A17C | 2.05
A17E | 3.61
A17W | 3.01
A17T | 3.13
A17M | 2.99
A17R | 2.9
A17N | 3.61
A17Y | 3.25
A17I | 2.97
A17D | 3.68
A17P | 3.7
A17G | 2.9
A17F | 2.2
A17Q | 3.02
A17S | 2.77
A17V | 2.56
F13K | 3.35
F13T | 3.34
F13A | 3.12
F13I | 3.02
F13D | 3.82
F13M | 3.25

Variant | protein stability index
F13L | 2.87
F13H | 3.86
F13Y | 2.65
F13R | 2.94
F13N | 3.4
F13P | 3.55
F13S | 2.84
F13Q | 3.9
F13W | 3.45
F13G | 3.69
F13E | 3.99
F13C | 2.19
F13V | 3.55
G18V | 2.75
G18F | 2.7
G18S | 3.36
G18W | 2.09
G18D | 2.84
G18R | 3.29
G18T | 3.53
G18L | 2.66
G18C | 2.77
G18E | 3.6
G18Y | 2.98

Variant | protein stability index
G18K | 3.58
G18P | 3.53
G18N | 2.85
G18H | 2.53
G18I | 2.9
G18M | 2.71
G18Q | 3.12
G18A | 3.24
S19G | 3.14
S19M | 2.52
S19V | 2.72
S19F | 2.63
S19I | 2.96
S19P | 2.45
S19L | 2.82
S19N | 3.31
S19R | 3.26
S19K | 3.78
S19E | 2.98
S19Y | 2.53
S19W | 2.45
S19D | 2.86
S19H | 2.77
S19A | 3.62

Variant | protein stability index
S19C | 3.82
S19T | 3.65
S19Q | 3.16
A8V | 3.18
A8S | 3.72
A8P | 3.09
A8H | 3.61
A8E | 3.26
A8M | 2.85
A8W | 3.38
A8D | 2.97
A8C | 3.23
A8I | 3.06
A8R | 3.08
A8G | 3.11
A8L | 2.36
A8K | 2.94
A8N | 2.96
A8Y | 2.61
A8T | 2.73
A8Q | 3.16
A8F | 2.61
